Consider one molecule from patent US8444970B2, “Compositions and methods for treating ocular diseases and conditions” (Lpath, Inc., priority 2006, dated 2013).

For experiment [1], the system named is perivascular fibrosis. Nature of the experiment: Permanent myocardial infarction model, cardiac scar formation (Masson's trichrome). It counts as in vivo, mouse. Particulars: 25 mg/kg systemic, initiated 48 hrs after surgery. Here is the method: Studies evaluated the efficacy of SPHINGOMAB to reduce cardiac scar formation after permanent myocardial infarction (MI) via ligation of the left descending coronary artery in mice. Systemic administration of 25 mg/kg SPHINGOMAB or saline was initiated 48 hrs after surgery. Antibody administration at 48 hr. was chosen to allow normal, reparative scar formation to occur during the early remodeling phase and permit beneficial, S1P-stimulated angiogenesis immediately after the MI. Two weeks after the infarct, mice were sacrificed and fibrosis was accessed by Masson's trichrome staining of the cardiac tissue. […] As a control for any non-specific wound-healing responses, sham animals underwent thoracotomy without coronary artery ligation (FIG. 7E).

Experiment [2] can be described thus: Competitive ELISA for specificity / cross-reactivity to bioactive lipids. Particulars: for recognition of ceramide-1-phosphate (C1P): competitor lipid C1P; for cross-reactivity to lysophosphatidic acid (LPA): competitor lipid LPA; for cross-reactivity with sphingosylphosphorylcholine (SPC): competitor lipid SPC. It counts as binding. Here is the method: Screening of serum and cell supernatant for S1P-specific antibodies was by direct ELISA using a thiolated S1P analog as the antigen. A standard ELISA was performed, as described below, except that 50 ul of sample (serum or cell supernatant) was diluted with an equal volume of PBS/0.1% Tween-20 (PBST) during the primary incubation. ELISAs were performed in 96-well high binding ELISA plates (Costar) coated with 0.1 μg of chemically-synthesized thiolated-S1P conjugated to BSA in binding buffer (33.6 mM Na2CO3, 100 mM NaHCO3; pH 9.5). The thiolated-S1P-BSA was incubated at 37° C. for 1 hr. at 4° C. overnight in the ELISA plate wells. The plates were then washed four times with PBS (137 mM NaCl, 2.68 mM KCl, 10.14 mM Na2HPO4, 1.76 mM KH2PO4; pH 7.4) and blocked with PBST for 1 hr. at room temperature. For the primary incubation step, 75 uL of the sample (containing the S1P to be measured), was incubated with 25 uL of 0.1 ug/mL anti-S1P mAb diluted in PBST and added to a well of the ELISA plate. Each sample was performed in triplicate wells. Following a 1 hr. incubation at room temperature, the ELISA plates were washed four times with PBS and incubated with 100 ul per well of 0.1 ug/mL HRP goat anti-mouse secondary (Jackson Immunoresearch) for 1 hr. at room temperature. Plates were then washed four times with PBS and exposed to tetramethylbenzidine (Sigma) for 1-10 minutes. The detection reaction was stopped by the addition of an equal volume of 1M H2SO4. Optical density of the samples was determined by measurement at 450 nm using an EL-X-800 ELISA plate reader (Bio-Tech).
For cross reactivity, a competitive ELISA was performed as described above, except for the following alterations. The primary incubation consisted of the competitor (S1P, SPH, LPA, etc.) and a biotin-conjugated anti-S1P mAb. Biotinylation of the purified monoclonal antibody was performed using the EZ-Link Sulfo-NHS-Biotinylation kit (Pierce). Biotin incorporation was determined as per kit protocol and ranged from 7 to 11 biotin molecules per antibody. The competitor was prepared as follows: lipid stocks were sonicated and dried under argon before reconstitution in DPBS/BSA [1 mg/ml fatty acid free BSA (Calbiochem) in DPBS (Invitrogen 14040-133)]. Purified anti-S1P mAb was diluted as necessary in PBS/0.5% Triton X-100. Competitor and antibody solutions were mixed together so to generate 3 parts competitor to 1 part antibody. A HRP-conjugated streptavidin secondary antibody (Jackson Immunoresearch) was used to generate signal.
i. Specificity. The humanized variants were tested for specificity in a competitive ELISA assay (FIG. 1) against S1P and several other biolipids. This assay has the added benefit to allow for epitope mapping.

The test system of experiment [3] is cardiac fibroblasts from transgenic mice expressing collagen-GFP. Nature of the experiment: S1P-stimulated collagen gene expression (collagen-GFP reporter). It counts as cell-based, mouse. To be noted: 1 ug/mL antibody, 12-24 hr. Here is the method: FIG. 7. […] See Example 7, below, for experimental details. […] In these experiments, fibroblasts were serum-starved and then treated with 0, 0.1, 0.5, or 1 μM S1P+/−1 μg/mL SPHINGOMAB for 12-24 hr. […] SPHINGOMAB neutralized each of these S1P effects. SPHINGOMAB reduced perivascular fibrosis in vivo in a murine model of a permanent myocardial infarction (E).
S1P makes profound contributions to wound healing by activating fibroblast migration, proliferation and collagen production; SPHINGOMAB neutralizes these effects. Several studies using multiple types of fibroblasts confirm S1P's ability to promote wound healing: 1) S1P increased Swiss-3T3 fibroblast proliferation as measured by ^3H-thymidine incorporation using standard methods (FIG. 7A); 2) S1P promoted the migration of cardiac fibroblasts in a standard scratch wound healing assay. […] In each of these assays, SPHINGOMAB neutralized S1P's. It is anticipated that ocular fibroblasts would respond similarly to S1P and SPHINGOMAB.

The test system of experiment [4] is ovarian cancer (OVCAR3) cells. The experiment is described as follows: S1P-induced IL-8 release from ovarian cancer cells. It counts as cell-based. To be noted: 1 uM S1P, 22 hours. As to the method:
FIG. 12. FIG. 12 has two panels, A and B, that show data from in vitro cell assays performed using several humanized monoclonal antibody variants. […] As described in Example 16, below, SKOV3 cells were treated for 48 hr. with 500 nM Taxol (Tax) in the presence or absence of 500 nM S1P with huMAbHCLC3 (309), huMAbHCLC5 (308), muMAb S1P (muMAb), or non-specific IgG1 (NS) at a concentration of 1 μg/mL. Values represent means±SEM (n=3) with triplicates run for each data point. “NT” means not treated, and “Veh” stans for vehicle only. […] In the experiments described in detail in Example 16, below, 100,000 OVCAR3 cells/well were starved overnight and 1 uM S1P was added to the culture media alone or pre-incubated with 1 ug/ml of non-specific antibody (NS), pATH201+pATH309 (LC3), pATH201+pATH308 (LC5), pATH207+pATH309 (cysLC3), pATH207+pATH308 (cysLC5), and 0.1 ug/ml (M0.1), 1 ug/ml (M1) or 10 ug/ml (M10) of anti-S1P murine antibody. After 22 hours of incubation, cell supernatants were collected and IL-8 secretion was measured by ELISA using an R&D system Quantikine human CXCL8/IL-8 kit. In the figure “NT” refers to non-treated cells.
In parallel, all the variants were tested for their effects on S1P-induced cytokine release from cancer cells. S1P is known to elicit significant release of IL-8 into the cell-conditioned media from cancer cells.

B1: LT1002: murine anti-S1P monoclonal antibody, IgG1 kappa, hybridoma clone 306D326.26 (antibody, listed as Mus sp., V domains shown)
VH: QAHLQQSDAELVKPGASVKISCKVSGFIFIDHTIHWMKQRPEQGLEWIGCISPRHDITKYNEMFRGKATLTADKSSTTAYIQVNSLTFEDSAVYFCARGGFYGSTIWFDFWGQGTTLTVS
VL: ETTVTQSPASLSMAIGEKVTIRCITTTDIDDDMNWFQQKPGEPPNLLISEGNILRPGVPSRFSSSGYGTDFLFTIENMLSEDVADYYCLQSDNLPFTFGSGTKLEIK
Turning to B1, the “perivascular fibrosis two weeks after infarct” value in experiment [1] is “almost complete abrogation”. Also, in experiment [2] (In vitro activity, Table 7), the “Specificity (ELISA)” value is given as “High”. Moreover, in experiment [2] (listed as SPHINGOMAB), the “recognition of ceramide-1-phosphate (C1P)” value was “did not recognize”, the “cross-reactivity to lysophosphatidic acid (LPA)” value is reported as “no cross-reactivity” and the “cross-reactivity with sphingosylphosphorylcholine (SPC)” value is “to a lesser extent”. In experiment [2] (listed as anti-S1P mAb), the “recognition of ceramide-1-phosphate (C1P)” value is “no antibody binding was observed”, the “cross-reactivity to lysophosphatidic acid (LPA)” value is recorded as “no binding” and the “cross-reactivity with sphingosylphosphorylcholine (SPC)” value is listed as “somewhat reduced”. Moreover, the “cross-reactivity with dihydrosphingosine-1-phosphate (DH-S1P)” value in experiment [2] (competitor lipid DH-S1P) was “did cross react”. Besides, in experiment [2] (competitor lipid DH-SPH), the “recognition of dihydrosphingosine (DH-SPH)” value is reported as “did not recognize”. Besides, in experiment [2] (competitor lipid PE), the “recognition of phosphatidyl ethanolamine (PE)” value was “did not recognize”. For the same molecule, in experiment [2] (competitor lipid PS), the “recognition of phosphatidyl serine (PS)” value is on record as “did not recognize”. Also, the “recognition of sphingomyelin (SM)” value in experiment [2] (competitor lipid SM) is reported as “did not recognize”. Further, in experiment [2] (competitor lipid SPH), the “cross-reactivity to sphingosine (SPH)” value is “no cross-reactivity”. The S1P-promoted collagen expression entry in experiment [3] is “neutralized”. Besides, the IL-8 release result in experiment [4] is reported as “reduced IL-8 release”.
